In article PMC5460017:
Values belong to the substance of their own block, whether it stands above or below them.

What was measured:
[1] = molecular target: Mic60sol (Chaetomium thermophilum Mic60, residues 208–691) (Chaetomium thermophilum); assay: ITC; about 450 μM Mic19 construct in the syringe titrated into about 40 μM Mic60 construct in the cell; 10 °C; 20 mM HEPES/NaOH pH 7.5, 150 mM NaCl; untagged proteins
[2] = molecular target: Mic60sol (Chaetomium thermophilum Mic60, residues 208–691) (Chaetomium thermophilum); assay: AUC; sedimentation velocity (40,000 r.p.m., 3.5 h) and sedimentation equilibrium (9,000 r.p.m.); 20 mM HEPES/NaOH pH 7.3, 150 mM NaCl, 7 °C; 0.02–2 mg ml^-1 Mic60sol
[3] = molecular target: Mic60sol (Chaetomium thermophilum Mic60, residues 208–691) (Chaetomium thermophilum); assay: native gel or EMSA; blue native (BN)-PAGE of purified Mic60 constructs
[4] = molecular target: Mic60solΔMito (Chaetomium thermophilum Mic60, residues 208–608) (Chaetomium thermophilum); assay: as above
[5] = molecular target: Mic60solΔMitoΔLBS2 (Chaetomium thermophilum Mic60, residues 208–582) (Chaetomium thermophilum); assay: as above
[6] = molecular target: full-length Mic19 (Chaetomium thermophilum) (Chaetomium thermophilum); assay: SEC; gel filtration of purified Mic19 and its C132S/C143S mutant; the dimers were sensitive to reducing agents in SDS–PAGE

Substance: Mic60sol (Chaetomium thermophilum Mic60, residues 208–691) (domain or fragment)
stoichiometry N [2]: 2 | stoichiometry N [3]: 2

Substance: Mic60solΔMitoΔLBS2 (Chaetomium thermophilum Mic60, residues 208–582) (domain or fragment)
stoichiometry N [5]: 2

Substance: full-length Mic19 (Chaetomium thermophilum) (natural protein)
Kd [1]: 0.17 µM | stoichiometry N [1]: 0.73 | percent dimers [6]: 30% | stoichiometry N [6]: 2

Continued, values first:

Kd [1]: 3.5 µM | stoichiometry N [1]: 1
Substance: C132S/C143S Mic19 mutant (Chaetomium thermophilum) (natural protein)

stoichiometry N [4]: 2
Substance: Mic60solΔMito (Chaetomium thermophilum Mic60, residues 208–608) (domain or fragment)
